Data published in paper PMC7202667, “UNBRANCHED3 Expression and Inflorescence Development is Mediated by UNBRANCHED2 and the Distal Enhancer, KRN4, in Maize”.

Tests used:
OBF4, MBP fusion = molecular target: T1, OBF4, MBP fusion (Zea mays, UniProt B4FFB3 1-396); assay: EMSA; poly(dI-dC), 5 mM MgCl2; EMSA: 10 mM Tris pH 7.5, 50 mM KCl, 1 mM DTT, 5 mM MgCl2, 2.5% glycerol, poly(dI-dC), 0.05% NP-40; 20-40 ng protein, probe 10 fM (so in the source); room temperature; settings: protein: recombinant; tags: N-MBP (pMAL-c2x); chain copies: 2; label: 5'-biotin; blunt
T1 sequence: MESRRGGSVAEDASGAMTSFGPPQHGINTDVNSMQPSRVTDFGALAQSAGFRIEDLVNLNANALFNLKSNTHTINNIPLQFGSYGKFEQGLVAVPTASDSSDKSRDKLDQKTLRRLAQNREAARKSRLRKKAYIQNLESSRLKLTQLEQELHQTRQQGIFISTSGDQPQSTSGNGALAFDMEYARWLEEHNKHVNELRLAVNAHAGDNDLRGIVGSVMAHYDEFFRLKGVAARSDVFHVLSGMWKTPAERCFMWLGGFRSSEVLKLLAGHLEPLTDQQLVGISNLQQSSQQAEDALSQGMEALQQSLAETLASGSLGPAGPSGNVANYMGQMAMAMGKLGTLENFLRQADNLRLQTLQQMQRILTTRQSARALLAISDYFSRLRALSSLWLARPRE

OBF1, MBP fusion = molecular target: T2, OBF1, MBP fusion (Zea mays, UniProt P24068 1-151); assay: as above; settings: protein: recombinant; tags: N-MBP (pMAL-c2x); chain copies: 2; label: 5'-biotin; blunt
T2 sequence: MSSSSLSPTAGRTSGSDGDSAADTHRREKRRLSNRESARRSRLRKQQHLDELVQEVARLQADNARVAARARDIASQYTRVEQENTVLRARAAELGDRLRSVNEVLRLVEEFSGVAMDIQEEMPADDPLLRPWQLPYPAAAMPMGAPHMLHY

B1: 3xE1 probe (3E1X) (dsDNA)
DNA 1: ACATGGCACGACACGTAGTGAACCACATGGCACGACACGTAGTGAACCACATGGCACGACACGTAGTGAACC
DNA 2: GGTTCACTACGTGTCGTGCCATGTGGTTCACTACGTGTCGTGCCATGTGGTTCACTACGTGTCGTGCCATGT
OBF4, MBP fusion
  binding result: binds
OBF1, MBP fusion
  binding result: binds
